Assay results: IntAct's records for PubMed 29039417

B1: BBSome complex member BBS5 (Homo sapiens), Q8N3I7 (parent)
chain: MSVLDALWEDRDVRFDLSAQQMKTRPGEVLIDCLDSIEDTKGNNGDRGRLLVTNLRILWHSLALSRVNVSVGYNCILNITTRTANSKLRGQTEALYILTKCNSTRFEFIFTNLVPGSPRLFTSVMAVHRAYETSKMYRDFKLRSALIQNKQLRLLPQEHVYDKINGVWNLSSDQGNLGTFFITNVRIVWHANMNDSFNVSIPYLQIRSIKIRDSKFGLALVIESSQQSGGYVLGFKIDPVEKLQESVKEINSLHKVYSASPIFGVDYEMEEKPQPLEALTVEQIQDDVEIDSDGHTDAFVAYFADGNKQQDREPVFSEELGLAIEKLKDGFTLQGLWEVMS
partner: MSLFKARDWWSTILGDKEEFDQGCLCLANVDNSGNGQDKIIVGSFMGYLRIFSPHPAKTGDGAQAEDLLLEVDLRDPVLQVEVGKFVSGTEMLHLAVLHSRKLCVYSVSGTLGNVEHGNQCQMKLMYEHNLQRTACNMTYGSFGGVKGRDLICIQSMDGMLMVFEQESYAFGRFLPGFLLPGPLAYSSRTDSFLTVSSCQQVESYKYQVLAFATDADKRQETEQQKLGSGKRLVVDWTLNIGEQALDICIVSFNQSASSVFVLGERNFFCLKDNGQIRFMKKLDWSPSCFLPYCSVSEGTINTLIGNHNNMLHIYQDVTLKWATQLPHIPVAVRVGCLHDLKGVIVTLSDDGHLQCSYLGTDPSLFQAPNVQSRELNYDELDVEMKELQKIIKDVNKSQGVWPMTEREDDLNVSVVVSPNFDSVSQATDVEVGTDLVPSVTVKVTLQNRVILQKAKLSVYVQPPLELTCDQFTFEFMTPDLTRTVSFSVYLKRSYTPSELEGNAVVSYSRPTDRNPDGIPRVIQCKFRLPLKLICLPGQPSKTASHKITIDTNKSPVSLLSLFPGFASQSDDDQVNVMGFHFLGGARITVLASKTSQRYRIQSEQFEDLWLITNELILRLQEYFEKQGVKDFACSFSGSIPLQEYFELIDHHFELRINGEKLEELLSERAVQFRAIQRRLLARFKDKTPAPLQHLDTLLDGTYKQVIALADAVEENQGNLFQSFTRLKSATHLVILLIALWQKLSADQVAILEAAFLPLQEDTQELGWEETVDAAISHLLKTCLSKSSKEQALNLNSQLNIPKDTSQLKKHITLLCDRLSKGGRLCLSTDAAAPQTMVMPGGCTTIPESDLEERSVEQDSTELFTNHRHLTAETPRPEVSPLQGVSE

Variants of: B1
Conditions: with pthb1_human BBS9, Q3SYG4

Row | Variant | effect of a mutation on the interaction
1 | MSVLDALWEDRDVEFDLSAQQMKTRPGEVLIDCLDSIEDTKGNNGDRGRLLVTNLRILWHSLALSRVNVSVGYNCILNITTRTANSKLRGQTEALYILTKCNSTRFEFIFTNLVPGSPRLFTSVMAVHRAYETSKMYRDFKLRSALIQNKQLRLLPQEHVYDKINGVWNLSSDQGNLGTFFITNVRIVWHANMNDSFNVSIPYLQIRSIKIRDSKFGLALVIESSQQSGGYVLGFKIDPVEKLQESVKEINSLHKVYSASPIFGVDYEMEEKPQPLEALTVEQIQDDVEIDSDGHTDAFVAYFADGNKQQDREPVFSEELGLAIEKLKDGFTLQGLWEVMS [R14E] | disrupting interaction strength
2 | MSVLDALWEDRDVAFDLSAQQMKTRPGEVLIDCLDSIEDTKGNNGDRGRLLVTNLRILWHSLALSRVNVSVGYNCILNITTRTANSKLRGQTEALYILTKCNSTRFEFIFTNLVPGSPRLFTSVMAVHRAYETSKMYRDFKLRSALIQNKQLRLLPQEHVYDKINGVWNLSSDQGNLGTFFITNVRIVWHANMNDSFNVSIPYLQIRSIKIRDSKFGLALVIESSQQSGGYVLGFKIDPVEKLQESVKEINSLHKVYSASPIFGVDYEMEEKPQPLEALTVEQIQDDVEIDSDGHTDAFVAYFADGNKQQDREPVFSEELGLAIEKLKDGFTLQGLWEVMS [R14A] | with no effect
3 | MSVLDALWEDRDVKFDLSAQQMKTRPGEVLIDCLDSIEDTKGNNGDRGRLLVTNLRILWHSLALSRVNVSVGYNCILNITTRTANSKLRGQTEALYILTKCNSTRFEFIFTNLVPGSPRLFTSVMAVHRAYETSKMYRDFKLRSALIQNKQLRLLPQEHVYDKINGVWNLSSDQGNLGTFFITNVRIVWHANMNDSFNVSIPYLQIRSIKIRDSKFGLALVIESSQQSGGYVLGFKIDPVEKLQESVKEINSLHKVYSASPIFGVDYEMEEKPQPLEALTVEQIQDDVEIDSDGHTDAFVAYFADGNKQQDREPVFSEELGLAIEKLKDGFTLQGLWEVMS [R14K] | with no effect
4 | MSVLDALWEDRDARFDLSAQQMKTRPGEVLIDCLDSIEDTKGNNGDRGRLLVTNLRILWHSLALSRVNVSVGYNCILNITTRTANSKLRGQTEALYILTKCNSTRFEFIFTNLVPGSPRLFTSVMAVHRAYETSKMYRDFKLRSALIQNKQLRLLPQEHVYDKINGVWNLSSDQGNLGTFFITNVRIVWHANMNDSFNVSIPYLQIRSIKIRDSKFGLALVIESSQQSGGYVLGFKIDPVEKLQESVKEINSLHKVYSASPIFGVDYEMEEKPQPLEALTVEQIQDDVEIDSDGHTDAFVAYFADGNKQQDREPVFSEELGLAIEKLKDGFTLQGLWEVMS [V13A] | disrupting interaction strength
5 | MSVLDALWEDRDKRFDLSAQQMKTRPGEVLIDCLDSIEDTKGNNGDRGRLLVTNLRILWHSLALSRVNVSVGYNCILNITTRTANSKLRGQTEALYILTKCNSTRFEFIFTNLVPGSPRLFTSVMAVHRAYETSKMYRDFKLRSALIQNKQLRLLPQEHVYDKINGVWNLSSDQGNLGTFFITNVRIVWHANMNDSFNVSIPYLQIRSIKIRDSKFGLALVIESSQQSGGYVLGFKIDPVEKLQESVKEINSLHKVYSASPIFGVDYEMEEKPQPLEALTVEQIQDDVEIDSDGHTDAFVAYFADGNKQQDREPVFSEELGLAIEKLKDGFTLQGLWEVMS [V13K] | disrupting interaction strength
6 | MSVLDALWEDRDERFDLSAQQMKTRPGEVLIDCLDSIEDTKGNNGDRGRLLVTNLRILWHSLALSRVNVSVGYNCILNITTRTANSKLRGQTEALYILTKCNSTRFEFIFTNLVPGSPRLFTSVMAVHRAYETSKMYRDFKLRSALIQNKQLRLLPQEHVYDKINGVWNLSSDQGNLGTFFITNVRIVWHANMNDSFNVSIPYLQIRSIKIRDSKFGLALVIESSQQSGGYVLGFKIDPVEKLQESVKEINSLHKVYSASPIFGVDYEMEEKPQPLEALTVEQIQDDVEIDSDGHTDAFVAYFADGNKQQDREPVFSEELGLAIEKLKDGFTLQGLWEVMS [V13E] | disrupting interaction strength
7 | MSVLDALWEDRDVREDLSAQQMKTRPGEVLIDCLDSIEDTKGNNGDRGRLLVTNLRILWHSLALSRVNVSVGYNCILNITTRTANSKLRGQTEALYILTKCNSTRFEFIFTNLVPGSPRLFTSVMAVHRAYETSKMYRDFKLRSALIQNKQLRLLPQEHVYDKINGVWNLSSDQGNLGTFFITNVRIVWHANMNDSFNVSIPYLQIRSIKIRDSKFGLALVIESSQQSGGYVLGFKIDPVEKLQESVKEINSLHKVYSASPIFGVDYEMEEKPQPLEALTVEQIQDDVEIDSDGHTDAFVAYFADGNKQQDREPVFSEELGLAIEKLKDGFTLQGLWEVMS [F15E] | disrupting interaction strength
8 | MSVLDALWEDRDVRADLSAQQMKTRPGEVLIDCLDSIEDTKGNNGDRGRLLVTNLRILWHSLALSRVNVSVGYNCILNITTRTANSKLRGQTEALYILTKCNSTRFEFIFTNLVPGSPRLFTSVMAVHRAYETSKMYRDFKLRSALIQNKQLRLLPQEHVYDKINGVWNLSSDQGNLGTFFITNVRIVWHANMNDSFNVSIPYLQIRSIKIRDSKFGLALVIESSQQSGGYVLGFKIDPVEKLQESVKEINSLHKVYSASPIFGVDYEMEEKPQPLEALTVEQIQDDVEIDSDGHTDAFVAYFADGNKQQDREPVFSEELGLAIEKLKDGFTLQGLWEVMS [F15A] | disrupting interaction strength
